# Results published in article PMC5834252, “Targeting scFv-Fc-scTRAIL fusion proteins to tumor cells” (Oncotarget, 2018).
# Target: T1, Mouse TRAIL-R2-Fc (mouse, UniProt Q9QZM4 53-180)
# T1 construct: mouse TRAIL-R2; Named in the materials only; source: bought: Sino Biological Inc. (50412-M03H)
# Experiment: ELISA; Fc fusion proteins of human and mouse TRAIL receptors coated (200 ng/well); 40 nM scTRAIL units; detected with anti-FLAG-HRP; relative OD450
# Conditions: both partners purified
# T1 sequence (Q9QZM4 53-180): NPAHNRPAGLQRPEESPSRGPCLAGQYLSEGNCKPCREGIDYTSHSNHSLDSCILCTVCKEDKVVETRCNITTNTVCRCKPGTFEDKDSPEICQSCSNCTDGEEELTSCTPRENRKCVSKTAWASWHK
binder,measurement,value
"Fc-scTRAIL (Fc fusion, human, human TRAIL, first protomer of single-chain TRAIL (scTRAIL), amino acids 118-281; single glycine residue as linker between the TRAIL protomers; human TRAIL, second protomer of scTRAIL, amino acids 118-281; human TRAIL, third protomer of scTRAIL, amino acids 118-281; scTRAIL is fused to the C-terminus of the human gamma1 Fc; disulfide-linked dimer (hexavalent TRAIL); also called non-targeted …) GPQRVAAHITGTRGRSNTLSSPNSKNEKALGRKINSWESSRSGHSFLSNLHLRNGELVIHEKGFYYIYSQTYFRFQEEIKENTKNDKQMVQYIYKYTSYPDPILLMKSARNSCWSKDAEYGLYSIYQGGIFELKENDRIFVSVTNEHLIDMDHEASFFGAFLVGGGPQRVAAHITGTRGRSNTLSSPNSKNEKALGRKINSWESSRSGHSFLSNLHLRNGELVIHEKGFYYIYSQTYFRFQEEIKENTKNDKQMVQYIYKYTSYPDPILLMKSARNSCWSKDAEYGLYSIYQGGIFELKENDRIFVSVTNEHLIDMDHEASFFGAFLVGGGPQRVAAHITGTRGRSNTLSSPNSKNEKALGRKINSWESSRSGHSFLSNLHLRNGELVIHEKGFYYIYSQTYFRFQEEIKENTKNDKQMVQYIYKYTSYPDPILLMKSARNSCWSKDAEYGLYSIYQGGIFELKENDRIFVSVTNEHLIDMDHEASFFGAFLVG",binding result,binds
